One molecule from patent US20080299140A1, “Immunogenic Composition and Peptide Sequences for Prevention and Treatment of an Hsv Condition” (priority 2002, published 2008) can be followed below.

No end group written: not given here.

The assay has as its target HLA-DR(α1*0101,α1*1301) (human). Put plainly: reference IC50 of the tracer peptide in the HLA class II competition assay.

The IC50 is the midpoint of a concentration-inhibition curve. A lower IC50 goes with inhibition by little substance.

B1: B1 (21-36) (peptide)
peptide: TERVRLVTRHIYNREE
modifications: also: biotinylated when used as tracer
B1 had an IC50 of 276 nM.
